The record followed here is publication PMC4866688, “Trypanosoma brucei DHFR-TS Revisited: Characterisation of a Bifunctional and Highly Unstable Recombinant Dihydrofolate Reductase-Thymidylate Synthase” (PLoS Neglected Tropical Diseases, 2016).

This data set deals with the molecule itself. In words: SEC; Superdex 200 column, Bio-Rad gel filtration standards; purified cleaved enzyme, DHFR activity and absorbance at 280 nm followed. (In gel filtration, larger molecules generally elute earlier.)

B1: Trypanosoma brucei dihydrofolate reductase-thymidylate synthase, Tsf tag removed with TEV protease (enzyme, UniProt Q27783 1-527, looked up)
chain: MLSLTRILRKKIPVHELAGKISRPPLRPFSVVVASDEKGGIGDGGTIPWEIPEDMQYFRRVTTNLRGKNVKPSPSKRNAVVMGRKTWDSLPPKFRPLSNRLNVVLSRSATKEQLLAGIPDPIKRAEAANDVVAVNGGLEDALRMLVSKEHTSSIETVFCIGGGTIYKQALCAPCVNVLQAIHRTVVRPASNSCSVFFDIPAAGTKTPEGLELVRESITDERVSTGAGGKKYQFEKLVPRNSEEEQYLNLVGRIIDEGCTKCDRTGVGTRSLFGAQMRFSLRNNRLPLLTTKRVFWRGVCEELLWFLRGETNAKLLSDKGIHIWDGNGSRAFLDSRGLTDYDEMDLGPVYGFQWRHFGADYISCKVDSEGKGVDQIANIVKSLIENPDDRRMICTAWNPAALPRMALPPCHMMAQFYVSNGELSCMLYQRSCDMGLGVPFNIASYALLTFLMAKASGLRPGELVHTLGDAHVYSNHVEPCRKQLKRVPRPFPFIVFKQDKEFLEDFQESDIEVIDYSPYPVISMEMAV
notes: bifunctional dihydrofolate reductase-thymidylate synthase of Trypanosoma brucei strain 427; N-terminal DHFR domain (ends at Arg 239), linker, C-terminal TS domain; also called TbDHFR-TS; cleaved TbDHFR-TS; not shown: Tsf (E. coli elongation factor Ts), N-terminal, cleaved; His6, internal (between Tsf and the TEV site), cleaved
As to B1, the “stoichiometry N” value came to 2.

In general, stoichiometry N refers to the number of molecules, sites or subunits per partner or assembly.
